According to the NTF2 design screens of Basanta et al. (2020):

Experiment: protease stability score; higher = more stable; yeast display proteolysis, trypsin and chymotrypsin;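 note: log10 excess protease needed over predicted unfolded state with 0 meaning unfolded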
“DDNEVETVRELIEQLETGDPDKFKEMVDKDVNINVGNKHVHGREEAVEQIRKEAREISFRIKVDRVEAHNGHVRVDFKFDAEVNGQPRSFRAIMVLEIEDGVVKHIELQMDRNQQQRLEK” showed a protease stability score of 1.1.
In the case of “DDNLNRKVKKFWKVLQKGNPHEAKKYFDPNAHIVIGDQRIHGMDKFNRRMEHMKSHIRVQIDTLRMQDNGSQVDVTFEAVFNHNGRPKRYRARVRFEVHNGKAKSLTLKEDQ”, the protease stability score is reported as 0.265.
“DDNLRKHVDNLIKLLQDGNPQELVNMADPNARVTIGDEQVHGREQLHEDWHRQAKEMRIQWDHYRVDAQGDKVRVNATRTLQTNGKPDSERFHVEMRLQGDKLQTERVDVHK” gave a protease stability score of -0.265.
“DDQAKRIVDEILTNMRTGDEDKLKTLIDPNARARVGEKEVHGWDDALKEIADKLRDIRIQIDRFSVKVTGDKVKIDFTAQNEHNGQPSTKKYERNYKIKNGRVKHFEDVSTQ” showed a protease stability score of -0.192.
Sequence “DDQALRLLEEWLKAVQEGDQERAHEMADPNAKFEVGDKTINGMDDVNEQIRRDTESMRYQVQNVHSITRPNHVQADVQFENEHNGNPDTNRMVIQARATNGRIQSLRIQDKK” has a protease stability score of 0.058.
With “DDQDIRHILDQWRTGDFDQVRNQADENANIVYGDKRYHGREQLQEWMKTLKEQIDHFHIRSITQKGDKARFEAEADVNGVDVKFSVVISVHNGRVKFFEFQWTSEELLERIKHEIG” the protease stability score was 0.942.
Sequence “DDQDLAKRLLDQLTKALQHGDERQLQRLMDKDVRVHIGDKNIHGREQAATFWVHLRKHVDRLSVRVKHVDIQGERVVFDMVFVFNHNGRQEHVRVVIVAKKDGDKIRIKRASQN” has a protease stability score of 2.16.
In the case of “DDQDRSHAVRLMRTGNFKEWADQADKDVSMQVGDKEVRGREQVIKMLKRLQEAADHVQVKSIHTQGEKMKADVTININGDQIRVIIEVVVEGDKLKELRIQFTSEHDEKIMHEQLQ”, the protease stability score is reported as 1.14.
“DDQEDAEKAARRFNKIVNENNFDDLLNQFDPNARIQVGDKQYHGRSEISKFMQKWKRQIDHLEAHLKDVKVDNGRIDVKFKFQFHKNGTRVDRDMSLDARRQGDQINIQELHLG” showed a protease stability score of 0.198.
“DDQEERDWNERMKQVLRTGDEHRLEQLMDENVRMRVGDSVVTGREKVRQVFHELMKQADKIEVKSVSAQGNEVLIRFVLNHNGKNDDVVIEVRVHNGRIKEIVIRSK” gave a protease stability score of -0.001.
“DDQEIAEQAARDFDTAVQEGDEDQIVRMADPNVQLQIGDERYRGREDLRKWIKDIRRQVDHVDVRVRDLKVQGEHVRARIEVQYTENGKTRRYQFEMTNNIHNGRVRMTQVNEK” gave a protease stability score of 0.948.
“DDQELAEDAQRQFQEVLKTGDPKRANELMDEDARLEVGDTQLHGRERVAKHLSDLRKQADHIDVRVDTIRVHNGRVDADVRIRITKNGQNREFRARLYFTVQGDKVKMKRLQES” gave a protease stability score of 1.38.
Sequence “DDQERREIAKNFQRGNEQVVKKLVDPNARIRVGDKTLHGRDQMSHVFKRLQEQVDHIDVKHYTISGEHIVIDAIFVINGKNIRMVIVVQVENGRVKRVDFKYTNEEQKKQLERDLS” has a protease stability score of 0.004.
“DDQEVKKLAHEVQKILEHGDPDQFADLFDKDARMTVGDKDLHGRERIRELAQRQQDRIDHVQLEEYQVHNGRVVLKMRVNVNGHDETINMTLHQRNGKVKEFTQQSR” gave a protease stability score of 0.071.
With “DDQHHAERFVEHVLKQLQTGNENDISKMVDENARVEYGDEEITGRESVVKHLIKEARRVDSIDLKVKSVSKEGDKINVTLVAVLDVNGRKDKRQFRVVMAKQGDKTNIISQHEK” the protease stability score was 0.965.
With “DDQHQQKFAEEFNKNLEKGDFHRIAQMADENVRVRYGDKSVNGREHMSQFMKELRDRVDHMEIKDFHASNGKITITFVVNVNGKNITLHISIRVSNGRIHEVSLDPDQLKSLES” the protease stability score was 2.
In the case of “DDQKARRLVERFIRALQHGDEDLARQLFDKNAKINIGDKTLTGREDVAKYVHHVHRHVDDVSVKSIQVDGDKAEVRVQFDINGKQHQMTFSAKYRNGRVQSATYKSQ”, the protease stability score is reported as 0.524.
For “DDQKEIEKVLEVIKRMDTGDEKNVKEMFDPNARASVGERTYHGREDIQSFARELKERVDHVRIDSMSAHGDKATVDLRMNENGRTERYSVRVQIHNGRARHLRYTTK”, the protease stability score was -0.219.
“DDQKKKELMQKMVEAYLSGHHEEVEKLGKDDGKVEAGDRKYEGSEQARKAAKQFKTYGVELRITDMQQDGDRLDVKAEAHMGGVTWEFTATVTADGGKVDKIQIDASDDAKKAIKDG” gave a protease stability score of 0.725.
“DDQKNLEKWVRDFQEVNKTGDPDRFRNLFPPNAEMTIGDKTIKGSETVREYMEHLVNRYDHLDVQVESIHAEGDKLTVKLRLVFNTNGKNDQYVNKVLLDDHNGRLKAHEVHQE” showed a protease stability score of 0.7.
